Source: patent US11584938B2, “Plant EPSPS mutant containing L195P and S247G mutations and encoding gene and use thereof” (GEVOTO LLC, priority 2017, dated 2023)

Tested on: transgenic rice plants
Assay: glyphosate resistance of the EPSPS mutant in transgenic rice plants sprayed with Roundup 41% ammonium glyphosate
Format: in vivo, rice (Nipponbare)
Excerpt: A method for detecting the glyphosate resistance of G1 (SEQ ID NO: 4) provided in Example 1, G3 (SEQ ID NO: 8) provided in Example 2, G4 (SEQ ID NO: 10) provided in Example 3, the soybean EPSPS mutant G5 (SEQ ID NO: 12) provided in Example 4, T1 (SEQ ID NO: 16) provided in Example 5, T3 (SEQ ID NO: 20) provided in Example 6, T4 (SEQ ID NO: 22) provided in Example 7, T5 (SEQ ID NO: 24) provided in Example 8, the wheat EPSPS mutant T6 (SEQ ID NO: 26) provided in Example 9, R1 (SEQ ID NO: 30) provided in Example 10, R3 (SEQ ID NO: 34) provided in Example 11, R4 (SEQ ID NO: 36) provided in Example 12, R5 (SEQ ID NO: 38) provided in Example 13, and the rice EPSPS mutant R6 (SEQ ID NO: 40) provided in Example 14 in the transgenic rice is as follows:
The plasmids (containing the EPSPS mutation gene) of the monoclonal resistant bacteria of pADV5-EPSPS in Examples 1-7 were extracted by a conventional method, followed by double enzyme digestion by Pac1 and BstEII, the small fragments were collected, and then the small fragments were ligated by using T4 DNA ligase, to the pGVP1 vectors that had undergone the same double enzyme digestion, to obtain a pGVP1-EPSPS vector having a structure as shown in FIG. 23.
EHA105 (Agrobacterium tumefaciens) competent cells were transformed by the pGVP1-EPSPS vector, and single colonies were picked up to perform bacterial colony PCR detection to identify positive strains; then the positive strains were inoculated into 1 mL of YEP culture medium containing 50 μg·mL^−1 kanamycin and 50 μg·mL^−1 rifampin to propagate, and then preserved at −80° C., or used for subsequent experiment.
400 μl of bacterium containing the target gene vector preserved at −80° C. was added to a culture dish of solid culture media containing YEP+50 μg/mL rifampin+50 μg/mL kanamycin, and cultured in the dark at 28° C. for 24 hours, then this bacterium was added to an infection culture medium, and this bacterial solution was adjusted to OD=0.2 as an infection liquid.
Sterilization and pre-culturing: mature rice (Nipponbare) seeds were manually shelled, and full seeds without bacterial plaque were selected, and sterilized according to following steps: putting the seeds into a 50 ml sterile centrifuge tube, adding 70% alcohol for disinfection for 30 seconds, pouring out the alcohol, and cleaning the seeds once with sterile water; adding 10-20 ml of 2.6% sodium hypochlorite solution for soaking and sterilizing for 20 minutes, pouring out the sodium hypochlorite solution, and soaking and cleaning the seeds with sterile water for 6-7 times, 3 minutes each time.
Induction and subculturing: the seeds were put on sterile filter paper for drying, and mature embryos were put in an induction culture medium with 12 embryos in each dish; the culture dishes were sealed with a sealing film after the operation was finished, the mature embryos were cultured in the dark at 30° C. for 21-28 days, calluses were transferred into a fresh culture medium, and continuously cultured for about 7-14 days, and spherical calluses with a size of 1-2 mm were taken as infection receptors.
the calluses were inoculated into a centrifuge tube or a culture cup, the prepared Agrobacterium tumefaciens suspension liquid was added for infection for 10 minutes, wherein the calluses were shaken several times; the bacterial solution was poured out, the calluses were taken out, and placed on sterile filter paper to suck out the surface bacterial solution (about 30 minutes); and the calluses were put on sterile filter paper in a culture dish, and cultured in the dark at 25° C. for 2-3 days.
Recovery culturing: the calluses having undergone co-culturing were inoculated in a recovery culture medium, and cultured in the dark at 30° C. for 5-7 days. First round of screening: the calluses were transferred to screening culture media 1 (S1) and cultured in the dark at 30° C. for 14 days. […]

[1] = 1× dosage 1060 g/hectare glyphosate sprayed, recorded on 10th day
[2] = 2× dosage 2120 g/hectare sprayed to plants surviving 1×, recorded 10 days later
[3] = 5× dosage 5300 g/hectare sprayed to plants surviving 2×, recorded 10 days later
[4] = 20× dosage 21200 g/hectare sprayed to plants surviving 5×, recorded 10 days later

B1: G3: soybean EPSPS mutant, SEQ ID NO: 8, mutations L212(195)P and P114(101)S (protein)
chain: MAAAEKPSTAPEIVLEPIKDISGTITLPGSKSLSNRILLLAALSEGTTVVDNLLYSEDIHYMLGALRTLGLRVEDDQTTKQAIVEGCGGLFPTIKESKDEINLFLGNAGTAMRSLTAAVVAAGGNASYVLDGVPRMRERPIGDLVAGLKQLGADVDCFLGTNCPPVRVNGKGGLPGGKVKLSGSVSSQYLTALLMAAPLALGDVEIEIVDKPISVPYVEMTLKLMERFGVSVEHSGDWDKFLVHGGQKYKSPGNAFVEGDASSASYFLAGAAVTGGTITVNGCGTSSLQGDVKFAEVLEKMGAKVTWSENSVTVTGPPQDSSGQKVLQGIDVNMNKMPDVAMTLAVVALFANGQTTIRDVASWRVKETERMIAICTELRKLGATVEEGPDYCVITPPEKLNVTAIDTYDDHRMAMAFSLAACGDVPVTIKDPGCTRKTFPDYFEVLERFTRH
- %++&+++ (percentage of plant having medium and high glyphosate resistance to the total number of plants observed) [1]: 57.9%
- number of plants denoted by + (low glyphosate resistance) [1]: 25
- number of plants denoted by ++ (medium glyphosate resistance) [1]: 37
- number of plants denoted by +++ (high glyphosate resistance) [1]: 7
- number of plants denoted by − (no glyphosate resistance) [1]: 7
- glyphosate resistance / survival of the rice transformed by the EPSPS, in words (1× glyphosate dosage): had certain resistance to glyphosate
- %++&+++ (percentage of plant having medium and high glyphosate resistance to the total number of plants observed) [2]: 0.0%
- number of plants denoted by + (low glyphosate resistance) [2]: 66
- number of plants denoted by ++ (medium glyphosate resistance) [2]: 0
- number of plants denoted by +++ (high glyphosate resistance) [2]: 0
- number of plants denoted by − (no glyphosate resistance) [2]: 10
- glyphosate resistance / survival of the rice transformed by the EPSPS, in words (2× glyphosate dosage): some of the rice seedlings containing the soybean EPSPS mutants G3 and G5 still survived
- &++&+++ (percentage of plant having medium and high glyphosate resistance to the total number of plants observed) [3]: 0.0%
- number of plants denoted by + (low glyphosate resistance) [3]: 46
- number of plants denoted by ++ (medium glyphosate resistance) [3]: 0
- number of plants denoted by +++ (high glyphosate resistance) [3]: 0
- number of plants denoted by − (no glyphosate resistance) [3]: 30
- glyphosate resistance / survival of the rice transformed by the EPSPS, in words (5× glyphosate dosage): some of the rice seedlings containing the soybean EPSPS mutants G3 and G5 still survived
- &++&+++ (percentage of plant having medium and high glyphosate resistance to the total number of plants observed) [4]: 0.0%
- number of plants denoted by + (low glyphosate resistance) [4]: 8
- number of plants denoted by ++ (medium glyphosate resistance) [4]: 0
- number of plants denoted by +++ (high glyphosate resistance) [4]: 0
- number of plants denoted by − (no glyphosate resistance) [4]: 68
- glyphosate resistance / survival of the rice transformed by the EPSPS, in words (20× glyphosate dosage): some of the rice seedlings containing the soybean EPSPS mutants G3 and G5 still survived
